Literature values, collected in publication PMC5403572.

Key:
Asp228 = Asp228 (UniProt position 289, DKSIVDSGTTN); test: kinetics; details: apo (free) enzyme
Asp32 = Asp32 (UniProt position 93, LNILVDTGSSN); test: kinetics; details: apo (free) enzyme

In the case of “Beta-secretase 1 (BACE1, memapsin 2) (Homo sapiens)”, the pKa (Asp228) is listed as 3.5 and the pKa (Asp32) is listed as 5.2.
